Data as given in patent US20260184814A1, “BROADLY NE[…] INFLUENZA NEURAMINIDASE” (priority 2022, published 2026).

B1: FNI9-v4.1 (antibody, V domains shown)
VH: QVHLVQSGAEVKEPGSSVTVSCKASGGSFSNQAISWVRQAPGQGLEWMGGIFPISGTPTSAQRFQGRVTFTADESTTTVYMDLSSLRSDDTAVYYCARAGSDYFNRDLGWENYYFASWGQGTLVTVSS
VL: EIVMTQSPATLSLSSGERATLSCRASRSVSSNLAWYQQKPGQAPRLLIYDASTRATGFSARFAGSGSGTEFTLTISSLQSEDSAIYYCQQYNNWPPWTFGQGTKVEIK
B2: FNI9-v8.1 (antibody, V domains shown)
VH: QVHLVQSGAEVKEPGSSVTVSCKASGGTFNNQAISWVRQAPGQGLEWMGGIFPISGTPTSAQRFQGRVTFTADESTTTVYMDLSSLRSDDTAVYYCARAGSDYFNRDLGWENYYFASWGQGTLVTVSS
VL: EIVMTQSPATLSLSSGERATLSCRASRSVSSNLAWYQQKPGQAPRLLIYDASTRATGFSARFAGSGSGTEFTLTISSLQSEDSAIYYCQQYNNWPPWTFGQGTKVEIK
B3: FNI9-v9.1 (antibody, V domains shown)
VH: QVHLVQSGAEVKEPGSSVTVSCKASGGSFNNQAISWVRQAPGQGLEWMGGIFPISGTATSAQRFQGRVTITADESTTTVYMDLSSLRSDDTAVYYCARAGSDYFNRDLGWENYYFASWGQGTLVTVSS
VL: EIVMTQSPATLSLSSGERATLSCRASRSVSSNLAWYQQKPGQAPRLLIYDASTRATGFSARFAGSGSGTEFTLTISSLQSEDSAIYYCQQYNNWPPWTFGQGTKVEIK
B4: Fab FNI9-v4.1 (Fab, V domains shown)
VH: QVHLVQSGAEVKEPGSSVTVSCKASGGSFSNQAISWVRQAPGQGLEWMGGIFPISGTPTSAQRFQGRVTFTADESTTTVYMDLSSLRSDDTAVYYCARAGSDYFNRDLGWENYYFASWGQGTLVTVSS
VL: EIVMTQSPATLSLSSGERATLSCRASRSVSSNLAWYQQKPGQAPRLLIYDASTRATGFSARFAGSGSGTEFTLTISSLQSEDSAIYYCQQYNNWPPWTFGQGTKVEIK
B5: Fab FNI9-v8.1 (Fab, V domains shown)
VH: QVHLVQSGAEVKEPGSSVTVSCKASGGTFNNQAISWVRQAPGQGLEWMGGIFPISGTPTSAQRFQGRVTFTADESTTTVYMDLSSLRSDDTAVYYCARAGSDYFNRDLGWENYYFASWGQGTLVTVSS
VL: EIVMTQSPATLSLSSGERATLSCRASRSVSSNLAWYQQKPGQAPRLLIYDASTRATGFSARFAGSGSGTEFTLTISSLQSEDSAIYYCQQYNNWPPWTFGQGTKVEIK

What was measured:
[1] = molecular target: N2 A/Tanzania/205/2010 (82-469) S245N S247T (Influenza A virus); assay: SPR (Biacore), NA on anti-Avi chip, 1:1 model; NA code NA-19 (+glyc245)
[2] = molecular target: N2 A/South_Australia/34/2019 (82-469) N245S (Influenza A virus); assay: SPR (Biacore), NA on anti-Avi chip, 1:1 model; NA code NA-24 (-glyc245)
[3] = molecular target: N2 A/Tanzania/205/2010 (82-469) S245N S247T (Influenza A virus); assay: SPR; NA-19; design: unit not given beside the values
[4] = molecular target: N2 A/South_Australia/34/2019 (82-469) N245S (Influenza A virus); assay: SPR; NA-24; design: unit not given beside the values
[5] = molecular target: N2 A/Hong_Kong/2671/2019 (82-469) N245S (Influenza A virus); assay: SPR; NA-25; design: unit not given beside the values
[6] = molecular target: N2 A/Tanzania/205/2010 (82-469) S245N S247T (Influenza A virus); assay: SPR, 1:1 binding; NA-19 "+glyc245"
[7] = molecular target: N2 A/South_Australia/34/2019 (82-469) N245S (Influenza A virus); assay: SPR, 1:1 binding; NA-24 "-glyc245"
[8] = molecular target: N2 A/Hong_Kong/2671/2019 (82-469) N245S (Influenza A virus); assay: SPR, 1:1 binding; NA-25 "-glyc245"

| Binder | fold-change in affinity compared to FNI9-v1.1 [1] | fold-change in affinity compared to FNI9-v1.1 [2] | KD compared to v1.1 [3] | KD compared to v1.1 [4] | KD compared to v1.1 [5] | Kd [6] [nM] | Kd [7] [nM] | Kd [8] [nM] |
| --- | --- | --- | --- | --- | --- | --- | --- | --- |
| B1 | 2.47 | 1.53 |  |  |  |  |  |  |
| B2 | 1.12 | 0.42 |  |  |  |  |  |  |
| B3 | 4.59 | 0.99 |  |  |  |  |  |  |
| B4 |  |  | 1.23 | 1.66 | 1.53 | 8.31 | 22.8 | 1.07 |
| B5 |  |  | 0.57 | 0.82 | 0.7 | 3.83 | 11.2 | 0.49 |
